Reference: patent publication US6462177B1, “Mammalian blood loss-induced gene, kd312” (Amgen Inc., priority 1998, dated 2002)
“Also recorded” adds a separate entry of the source.

Key:
293 cells = experiment: Establishment of 293 cell lines constitutively expressing genes from pCEP4; assay type: cell-based, human; conditions: no stable cell line could be established
Protocol: (§1) Transfections of 293 cells with the plasmid pCEP4 or its derivatives were performed by using LipofectAMINE Reagent and the protocol supplied with it by Gibco BRL. Transfected cells were grown in Gibco BRL D-MEM high-glucose medium that lacked sodium pyruvate and was supplemented with 10% FBS and 300 μg/ml hygromycin. Fluorescence-activated cell sorting (FACS) for apoptosis assays was performed according to Polverino and Patterson, J. Biol. Chem. 272, No. 11: 7013-7021 (1997).
(§2) Involvement of kd312 in apoptosis was tested in the human embryonal kidney cell line 293 following expression of this gene from the episomal expression vector pCEP4. Derivatives of 293 cells constitutively expressing human kd312, bcl-2, R-ras, and murine H-ras genes from pCEP4 were established. Expression of each gene was confirmed by Western blotting experiments (data not shown). […] It has been shown that R-ras promotes apoptosis following expression in 32, D3, FL5.12, and NIH3T3 cells. […] The levels of inhibition following expression of the ras genes, particularly R-ras, were unmistakably lower than those resulting from the expression of kd312.

[1] = system: human embryonal kidney cell line 293; experiment: FACS analysis of geranylgeraniol-induced apoptosis in 293 cells transfected with various genes; assay type: cell-based; conditions: 293 cells constitutively expressing the gene from pCEP4; 10 μM geranylgeraniol; propidium iodide FACS
Protocol: FIG. 4 depicts inhibition of apoptosis by human kd312 as compared to other proteins (as indicated). Shown graphs are the results from FACS analysis of apoptosis induced by geranylgeraniol in 293 cells transfected with various genes. Cells were treated with 10 μM geranylgeraniol for various times as indicated. Subsequently, the cells were washed and stained with 50 μg/ml propidium iodide in 3.8 mM sodium citrate pH 7.0 and analyzed using a FACScan flow cytometer. The extent of apoptosis was determined by measuring the proportion of cells displaying hypo-diploid DNA content. The data represent the average of 2 independent experiments.
as §1, §2

bcl-2 = biological target: T1, bcl-2 (Homo sapiens, UniProt P10415); experiment: Yeast two-hybrid interaction test; assay type: binding; conditions: yeast two-hybrid system
T1 construct: expressed in transfected cells
T1 sequence (P10415 whole entry): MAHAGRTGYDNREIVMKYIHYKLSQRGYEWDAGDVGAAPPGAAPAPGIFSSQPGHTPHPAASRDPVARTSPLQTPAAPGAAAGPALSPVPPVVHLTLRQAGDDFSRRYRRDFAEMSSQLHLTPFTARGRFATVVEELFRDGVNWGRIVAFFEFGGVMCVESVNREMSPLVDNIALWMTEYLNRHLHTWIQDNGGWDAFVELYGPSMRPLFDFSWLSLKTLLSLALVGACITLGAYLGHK
Source text: (§3) To define the way that kd312 exerts its function we have tested its interaction with human Raf, H-Ras, and bcl-2 using a yeast two-hybrid system. […] Work is in progress to search for kd312 interacting proteins using the same yeast system.

human Raf = biological target: T2, human Raf (Homo sapiens, UniProt P04049); experiment: Yeast two-hybrid interaction test; assay type: binding; conditions: yeast two-hybrid system
T2 construct: expressed in transfected cells
Source text: as §3

H-Ras = biological target: T3, H-Ras (Homo sapiens, UniProt P01112); experiment: Yeast two-hybrid interaction test; assay type: binding; conditions: yeast two-hybrid system
T3 construct: expressed in transfected cells
Source text: as §3

| Molecule | outcome of gene expression in 293 cells (293 cells) | effect on geranylgeraniol-induced apoptosis (proportion of cells with hypo-diploid DNA content) [1] | interaction with bcl-2 (bcl-2) | interaction with human Raf (human Raf) | interaction with H-Ras (H-Ras) |
| --- | --- | --- | --- | --- | --- |
| bax: murine bax gene product; expression in 293 cells led to cell death | invariably led to cell death | – | – | – | – |
| bcl-2: bcl-2 gene product, a potent apoptosis inhibitor, expressed from pCEP4 in 293 cells [reference compound] | – | protected 293 cells from geranylgeraniol-induced apoptosis | – | – | – |
| kd312: human kd312 protein (281 amino acids), blood loss-induced, distantly related to the Ras family, expressed from cDNA (protein) MKLAAMIKKMCPSDSELSIPAKNCYRMVILGSSKVGKTAIVSRFLTGRFEDAYTPTIEDFHRKFYSIRGEVYQLDILDTSGNHPFPAMRRLSILTGDVFILVFSLDNRDSFEEVQRLRQQILDTKSCLKNKTKENVDVPLVICGNKGDRDFYREVDQREIEQLVGDDPQRCAYFEISAKKNSSLDQMFRALFAMAKLPSEMSPDLHRKVSVQYCDVLHKKALRNKKLLRAGSGGGGGDPGDAFGIVAPFARRPSVHSDLMYIREKASAGSQAKDKERCVIS | – | protects the cells from apoptosis; also recorded: protected 293 cells from geranylgeraniol-induced apoptosis; also recorded: protects 293 cells from chemical-induced apoptosis | No interaction | No interaction | No interaction |
| R-ras: human R-ras gene product of the Ras family, expressed from pCEP4 in 293 cells (protein, UniProt P10301 1-215, looked up) Ras-related protein R-Ras: MSSGAASGTGRGRPRGGGPGPGDPPPSETHKLVVVGGGGVGKSALTIQFIQSYFVSDYDPTIEDSYTKICSVDGIPARLDILDTAGQEEFGAMREQYMRAGHGFLLVFAINDRQSFNEVGKLFTQILRVKDRDDFPVVLVGNKADLESQRQVPRSEASAFGASHHVAYFEASAKLRLNVDEAFEQLVRAVRKYQEQELPPSPPSAPRKKGGGCPC | – | inhibited apoptosis | – | – | – |
